# Data from IntAct's records for PubMed 21896273.
# B1: Signal peptide peptidase-like 2A (Mus musculus), Q9JJF9 (parent)
# chain: MGLLHSLHAPAAALLWSCLLGLAAAQEAILHASTNGVSSLSKDYCMYYNNNWTRLPSSLENATSLSLMNLTGTALCHLSDIPPDGIRNKAVVVHWGPCHFLEKARIAQEGGAAALLIANNSVLIPSSRNKSTFQNVTVLIAVITQKDFKDMKETLGDDITVKMYSPSWPNFDYTLVVIFVIAVFTVALGGYWSGLIELENMKSVEDAEDRETRKKKDDYLTFSPLTVVVFVVICCIMIVLLYFFYRWLVYVMIAIFCIASSMSLYNCLSALIHRMPCGQCTILCCGKNIKVSLIFLSGLCISVAVVWAVFRNEDRWAWILQDILGIAFCLNLIKTMKLPNFMSCVILLGLLLIYDVFFVFITPFITKNGESIMVELAAGPFENAEKLPVVIRVPKLMGYSVMSVCSVPVSVLGFGDIIVPGLLIAYCRRFDVQTGSSIYYISSTIAYAVGMIITFVVLMVMKTGQPALLYLVPCTLITVSVVAWSRKEMKKFWKGSSYQVMDHLDYSTNEENPVTTDEQIVQQ
# Variants of: B1
# Details: with lamp2_human LAMP2, P13473
# Chain of lamp2_human LAMP2, P13473 (P13473 whole entry): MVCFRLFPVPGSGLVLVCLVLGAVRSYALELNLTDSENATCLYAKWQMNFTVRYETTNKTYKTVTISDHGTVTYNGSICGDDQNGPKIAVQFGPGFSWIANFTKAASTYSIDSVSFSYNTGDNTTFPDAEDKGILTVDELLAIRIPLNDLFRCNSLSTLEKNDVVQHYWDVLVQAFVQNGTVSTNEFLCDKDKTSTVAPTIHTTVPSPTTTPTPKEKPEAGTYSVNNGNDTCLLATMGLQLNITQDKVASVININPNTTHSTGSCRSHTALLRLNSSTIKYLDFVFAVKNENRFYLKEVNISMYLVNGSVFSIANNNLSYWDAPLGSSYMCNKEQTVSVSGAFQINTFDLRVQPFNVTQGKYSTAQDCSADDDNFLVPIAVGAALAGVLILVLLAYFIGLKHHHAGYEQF
row,Variant,effect of a mutation on the interaction
1,MGLLHSLHAPAAALLWSCLLGLAAAQEAILHASTNGVSSLSKDYCMYYNNNWTRLPSSLENATSLSLMNLTGTALCHLSDIPPDGIRNKAVVVHWGPCHFLEKARIAQEGGAAALLIANNSVLIPSSRNKSTFQNVTVLIAVITQKDFKDMKETLGDDITVKMYSPSWPNFDYTLVVIFVIAVFTVALGGYWSGLIELENMKSVEDAEDRETRKKKDDYLTFSPLTVVVFVVICCIMIVLLYFFYRWLVYVMIAIFCIASSMSLYNCLSALIHRMPCGQCTILCCGKNIKVSLIFLSGLCISVAVVWAVFRNEDRWAWILQDILGIAFCLNLIKTMKLPNFMSCVILLGLLLIYDVFFVFITPFITKNGESIMVELAAGPFENAEKLPVVIRVPKLMGYSVMSVCSVPVSVLGFGDIIVPGLLIAYCRRFDVQTGSSIYYISSTIAYAVGMIITFVVLMVMKTGQPALLYLVPCTLITVSVVAWSRKEMKKFWKGSSAQVMDHLDYSTNEENPVTTDEQIVQQ [Y498A],disrupting interaction

# Variants of: B1
# Details: with lamp2_human LAMP2, P13473
# Remark: another data set of the same source
row,Variant,effect of a mutation on the interaction
1,MGLLHSLHAPAAALLWSCLLGLAAAQEAILHASTNGVSSLSKDYCMYYNNNWTRLPSSLENATSLSLMNLTGTALCHLSDIPPDGIRNKAVVVHWGPCHFLEKARIAQEGGAAALLIANNSVLIPSSRNKSTFQNVTVLIAVITQKDFKDMKETLGDDITVKMYSPSWPNFDYTLVVIFVIAVFTVALGGYWSGLIELENMKSVEDAEDRETRKKKDDYLTFSPLTVVVFVVICCIMIVLLYFFYRWLVYVMIAIFCIASSMSLYNCLSALIHRMPCGQCTILCCGKNIKVSLIFLSGLCISVAVVWAVFRNEDRWAWILQDILGIAFCLNLIKTMKLPNFMSCVILLGLLLIYDVFFVFITPFITKNGESIMVELAAGPFENAEKLPVVIRVPKLMGYSVMSVCSVPVSVLGFGDIIVPGLLIAYCRRFDVQTGSSIYYISSTIAYAVGMIITFVVLMVMKTGQPALLYLVPCTLITVSVVAWSRKEMKKFWKGSSYQVMDHLDASTNEENPVTTDEQIVQQ [Y506A],disrupting interaction
